Experimental data as given in patent US20220348650A1.

Target: hTIGIT on the surface of T cells of B-hPD-1/hTIGIT double humanized mice (human extracellular region in the mouse genome (C57BL/6)) (UniProt Q495A1)
Assay: flow cytometry on spleen cells of a B-hPD-1/hTIGIT mouse, secondary anti-human Fc FITC; Q3 (TCRβ positive, stain negative) 30.3%

Chain of hTIGIT on the surface of T cells of B-hPD-1/hTIGIT double humanized mice (human extracellular region in the mouse genome (C57BL/6)) (Q495A1 22-141 limits assumed): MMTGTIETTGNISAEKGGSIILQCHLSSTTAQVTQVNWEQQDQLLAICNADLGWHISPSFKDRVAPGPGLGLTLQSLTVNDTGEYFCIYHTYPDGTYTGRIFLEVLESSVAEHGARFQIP

IgG1 isotype control (antibody)
% of events in quadrant Q2 (mouse TCRβ positive and human IgG positive): 2.61%
